The values that follow come from PMC2517623.

The experiment deals with Crm1 (Xpo1) (UniProt P30822). Put plainly: biotin-peptide streptavidin pulldown, stained gel.

“Ace2 122-150 (from UniProt P21192) pS122 peptide”: the “binding against the reference” value (reference: unphosphorylated 122-150 peptide, sites S122) is on record as “weaker”. For the substance “Ace2 122-150 (from UniProt P21192) pS122 peptide, λ-phosphatase treated”, the “binding against the reference” value (reference: pS122 peptide, untreated, sites S122) was “stronger”. Turning to “Ace2 122-150 (from UniProt P21192) pS137 peptide”, the “binding against the reference” value (reference: unphosphorylated 122-150 peptide, sites S137) is listed as “weaker”. With “Ace2 122-150 (from UniProt P21192) pS137 peptide, λ-phosphatase treated”, for the setting “reference: pS137 peptide, untreated, sites S137”, the “binding against the reference” value is given as “stronger”.
